Experimental findings from patent US20220387586A1 (Hoffmann-La Roche, published 2022) are described below.

In general, IC50 refers to the concentration at which inhibition is half-maximal. A higher IC50 goes with weaker potency in that assay. The term EC50 denotes the midpoint of the concentration-response curve.

For assay [1], the target named is T1, biotinylated-Lag3 (UniProt P18627 23-450, limits assumed, biotinylated).
T1 construct: Probably a human LAG3 ECD construct; also called Lag3 (MHCII/ELISA)
T1 sequence (looked up): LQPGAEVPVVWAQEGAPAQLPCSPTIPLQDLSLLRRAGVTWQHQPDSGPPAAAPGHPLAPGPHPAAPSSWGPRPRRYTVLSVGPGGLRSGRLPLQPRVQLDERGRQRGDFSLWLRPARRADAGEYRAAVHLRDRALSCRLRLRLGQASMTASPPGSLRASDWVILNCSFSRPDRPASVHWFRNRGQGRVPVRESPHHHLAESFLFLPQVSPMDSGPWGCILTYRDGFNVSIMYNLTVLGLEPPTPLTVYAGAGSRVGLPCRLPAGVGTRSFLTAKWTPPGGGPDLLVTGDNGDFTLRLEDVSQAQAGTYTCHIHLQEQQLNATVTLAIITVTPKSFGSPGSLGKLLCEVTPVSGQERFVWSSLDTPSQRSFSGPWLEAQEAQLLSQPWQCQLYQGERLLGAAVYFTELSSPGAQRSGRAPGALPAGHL
Kind of assay: ELISA, inhibition of biotinylated-Lag3 binding to MHC-II on A375 cells (competitor MHC-II). As to the method: 25 μl/well of A375 cells (10000 cells/well) were seeded into tissue culture treated 384-well plates (Corning, 3701) and incubated at 37° C. overnight. […] After washing (1×90 μl in PBST) cells were fixed by addition of 30 μl/well glutaraldehyde to a final concentration of 0.05% (Sigma Cat.No: G5882), 10 min at room temperature. After washing (3×90 μl/well with PBST-buffer) 25 μl/well Poly-HRP40-Streptavidin (Fitzgerald, 65R-S104PHRPx) was added in a 1:2000 or 1:8000 dilution and incubated at RT for 1 h. After washing (3×90 μl/well with PBST-buffer) 25 μl/well TMB substrate (Roche, 11835033001) was added and incubated for 2 to 10 min. Measurement took place on a Tecan Safire 2 instrument at 370/492 nm.
Background: ELISA stands for enzyme-linked immunosorbent assay.

Assay [2] has as its target T2, biotinylated PD1-ECD-AviHis (human, UniProt Q15116 25-170, biotinylated).
T2 construct: also called huPD1; hu PD1; not shown: Avi-His tag
Kind of assay: ELISA on coated biotinylated PD1-ECD-AviHis (rel. EC50). As to the method:
After washing (3×90 μl/well with PBST-buffer) 25 μl/well goat-anti-human H+L-POD (JIR, JIR109-036-098) was added in 1:5000 dilution and incubated at RT for 1 h on a shaker. After washing (3×90 μl/well with PBST-buffer) 25 μl/well of TMB substrate (Roche, 11835033001) was added and incubated until OD 2-3. Measurement took place at 370/492 nm.

For assay [3], the target named is T3, recombinant Human LAG-3 Fc Chimera Protein (R&D Systems, 2319-L3) (human, UniProt P18627 29-450).
T3 construct: Bought protein; also called huLAG3; not shown: Fc part of the chimera
T3 sequence: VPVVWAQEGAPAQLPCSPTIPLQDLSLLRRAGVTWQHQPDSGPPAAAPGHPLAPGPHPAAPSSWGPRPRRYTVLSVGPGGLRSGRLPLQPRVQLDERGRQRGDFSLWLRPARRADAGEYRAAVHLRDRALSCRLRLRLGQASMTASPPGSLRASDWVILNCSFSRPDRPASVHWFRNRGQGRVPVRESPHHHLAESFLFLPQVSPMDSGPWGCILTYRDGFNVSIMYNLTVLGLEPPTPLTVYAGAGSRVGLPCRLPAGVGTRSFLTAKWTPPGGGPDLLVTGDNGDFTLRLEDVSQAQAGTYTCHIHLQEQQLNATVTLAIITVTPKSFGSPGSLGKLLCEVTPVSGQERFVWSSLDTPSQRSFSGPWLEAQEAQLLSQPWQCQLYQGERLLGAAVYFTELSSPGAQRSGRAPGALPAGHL
The assay is described as follows: ELISA on coated Human LAG-3 Fc Chimera (rel. EC50). As to the method:
After washing (3×90 μl/well with PBST-buffer) each well was incubated with 90 μl blocking buffer (PBS+2% BSA+0.05% Tween 20) for 1 h at room temperature. […] After washing (3×90 μl/well with PBST-buffer) 25 μl/well goat anti-Human Ig κ chain antibody-HRP conjugate (Milipore, AP502P) was added in a 1:2000 dilution and incubated at RT for 1 h. After washing (3×90 μl/well with PBST-buffer) 25 μl/well TMB substrate (Roche, 11835033001) was added and incubated for 2-10 min. Measurement took place on a Tecan Safire 2 instrument at 370/492 nm.

Assay [4] deals with T4, LAG3 on cells (recombinant CHO cells expressing Lag3) (human, UniProt P18627 29-525).
T4 construct: The cell ELISA paragraphs say only 'Lag3'; also called CHO-LAG3; Lag3 cells
T4 sequence: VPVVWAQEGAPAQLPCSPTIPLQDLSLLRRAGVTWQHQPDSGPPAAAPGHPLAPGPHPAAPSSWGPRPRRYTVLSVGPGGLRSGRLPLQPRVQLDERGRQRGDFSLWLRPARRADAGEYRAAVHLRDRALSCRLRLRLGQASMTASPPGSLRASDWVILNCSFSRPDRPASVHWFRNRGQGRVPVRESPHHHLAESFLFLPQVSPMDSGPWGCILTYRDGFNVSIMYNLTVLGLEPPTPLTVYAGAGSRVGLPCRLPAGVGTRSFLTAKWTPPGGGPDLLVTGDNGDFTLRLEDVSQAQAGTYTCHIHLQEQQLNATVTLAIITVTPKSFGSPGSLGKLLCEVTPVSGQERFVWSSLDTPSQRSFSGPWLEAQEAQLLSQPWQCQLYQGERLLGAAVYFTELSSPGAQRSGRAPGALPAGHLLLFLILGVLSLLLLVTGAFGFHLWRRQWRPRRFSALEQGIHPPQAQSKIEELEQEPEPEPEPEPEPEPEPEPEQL
The assay is described as follows: cell ELISA on recombinant CHO cells expressing Lag3 (rel. EC50). As to the method:
After washing (1×90 μl in PBST) cells were fixed by addition of 30 μl/well glutaraldehyde to a final concentration of 0.05% (Sigma Cat.No: G5882), 10 min at room temperature. After washing (3×90 μl/well with PBST-buffer) 25 μl/well goat anti-Human Ig κ chain antibody-HRP conjugate (Milipore, AP502P) was added in a 1:1000 dilution and incubated at RT for 1 h. After washing (3×90 μl/well with PBST-buffer) 25 μl/well TMB substrate (Roche, 11835033001) was added and incubated for 6-10 min. Measurement took place on a Tecan Safire 2 instrument at 370/492 nm.

In assay [5] the target is T5, full-length human PD1 on cells (human, UniProt Q15116 25-288).
T5 construct: also called CHO-PD1
T5 sequence (Q15116 25-288 limits assumed): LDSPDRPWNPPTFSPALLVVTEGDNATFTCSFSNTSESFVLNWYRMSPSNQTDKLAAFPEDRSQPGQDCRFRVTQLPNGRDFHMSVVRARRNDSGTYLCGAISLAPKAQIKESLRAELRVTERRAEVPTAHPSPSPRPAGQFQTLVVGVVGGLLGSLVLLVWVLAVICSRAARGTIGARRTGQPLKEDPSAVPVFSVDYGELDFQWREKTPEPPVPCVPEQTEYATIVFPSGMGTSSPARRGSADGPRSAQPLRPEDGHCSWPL
The assay is described as follows: cell ELISA on CHO-K1 cells expressing full-length human PD1 (rel. EC50). As to the method: (to avoid internalization). After washing carefully (1×90 μl/well PBST) cells were fixed by adding 30 μl/well 0.05% Glutaraldehyde (Sigma, Cat.No: G5882, 25%) diluted in 1×PBS-buffer and incubated for 10 min at RT. After washing (3×90 μl/well PBST) 25 μl/well secondary antibody was added for detection: goat-anti-human H+L-POD (JIR, JIR109-036-088)/Sheep-anti-mouse-POD (GE NA9310) followed by 1 h incubation at RT on shaker. After washing (3×90 μl/well PBST) 25 μl/well TMB substrate solution (Roche 11835033001) was added and incubated until OD 1.0-2.0. Plates were measured at 370/492 nm.

The target in assay [6] is T2, biotinylated PD1-ECD-AviHis. The assay is described as follows: ELISA on coated biotinylated PD1-ECD-AviHis. As to the method:
After washing (3×90 μl/well with PBST-buffer) 25 μl/well goat-anti-human H+L-POD (JIR, JIR109-036-088)/Sheep-anti-mouse-POD (GE Healthcare; NA9310) was added in 1:2000/1:1000 dilution and incubated at RT for 1 h on shaker. After washing (3×90 μl/well with PBST-buffer) 25 μl/well TMB substrate (Roche Catalogue No. 11835033001) was added and incubated until OD 2-3. Measurement took place at 370/492 nm.

For assay [7] the target is unchanged. The assay is described as follows: PD-L2 replacing ELISA on coated PD1-ECD-AviHis; competitor PD-L2 Fc chimera. As to the method:
After washing (3×90 μl/well with PBST-buffer) 25 μl/well goat-anti-human H+L-POD (JIR, 109-036-088) was added in 1:2000 dilution and incubated at RT for 1 h on shaker. After washing (3×90 μl/well with PBST-buffer) 25 μl/well TMB (tetramethylbenzidine) substrate (Roche, #11835033001) was added and incubated until OD 2-3. Measurement took place at 370/492 nm.

For assay [8], the target named is T6, biotinylated cynoPD1-ECD-Biotin (cynomolgus, UniProt B0LAJ3 25-170, biotinylated; the site and any Avi or His tag are not stated in the passages shown).
T6 construct: also called cyPD1
T6 sequence (B0LAJ3 entry or part of it limits assumed): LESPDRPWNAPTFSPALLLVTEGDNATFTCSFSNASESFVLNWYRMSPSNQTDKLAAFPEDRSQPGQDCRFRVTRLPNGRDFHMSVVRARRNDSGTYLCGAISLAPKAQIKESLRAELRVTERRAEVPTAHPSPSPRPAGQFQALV
Kind of assay: ELISA on coated cynoPD1-ECD-Biotin. As to the method: After washing (3×90 μl/well with PBST-buffer) 25 μl/well goat-anti-human H+L-POD (JIR, JIR109-036-088) was added in 1:1000 dilution and incubated at RT for 1 h on shaker. After washing (3×90 μl/well with PBST-buffer) 25 μl/well TMB substrate (Roche, 11835033001) was added and incubated until OD 2-3. Measurement took place at 370/492 nm.

T2 sequence (Q15116 25-170): as the sequence (B0LAJ3 entry or part of it limits assumed) above, with E2D, A10P, L19V, A35T, R75Q, A144T counted along it

B1: PD1/LAG3 9010 (bispecific antibody, human IgG1, kappa, L234A L235A)
heavy: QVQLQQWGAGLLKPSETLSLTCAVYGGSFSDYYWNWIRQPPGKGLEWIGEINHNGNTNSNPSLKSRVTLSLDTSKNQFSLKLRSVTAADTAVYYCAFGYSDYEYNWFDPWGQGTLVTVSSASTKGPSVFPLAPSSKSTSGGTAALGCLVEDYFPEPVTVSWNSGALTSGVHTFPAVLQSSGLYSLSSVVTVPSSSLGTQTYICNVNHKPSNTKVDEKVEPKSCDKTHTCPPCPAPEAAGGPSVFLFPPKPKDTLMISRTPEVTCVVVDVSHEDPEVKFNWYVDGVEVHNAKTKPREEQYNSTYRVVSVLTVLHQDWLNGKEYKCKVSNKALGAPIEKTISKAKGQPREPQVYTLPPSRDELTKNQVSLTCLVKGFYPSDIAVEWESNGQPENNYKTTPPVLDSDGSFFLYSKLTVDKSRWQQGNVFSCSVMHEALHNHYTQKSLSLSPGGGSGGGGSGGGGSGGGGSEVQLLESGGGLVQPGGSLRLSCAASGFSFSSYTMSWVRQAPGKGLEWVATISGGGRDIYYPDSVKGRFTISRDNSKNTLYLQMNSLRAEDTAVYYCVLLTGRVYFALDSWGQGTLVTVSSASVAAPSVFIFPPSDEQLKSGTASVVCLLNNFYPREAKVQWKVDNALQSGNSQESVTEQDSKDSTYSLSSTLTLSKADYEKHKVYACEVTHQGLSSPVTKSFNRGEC
light 1: DIVMTQSPDSLAVSLGERATINCKASESVDTSDNSFIHWYQQKPGQSPKLLIYRSSTLESGVPDRFSGSGSGTDFTLTISSLQAEDVAVYYCQQNYDVPWTFGQGTKVEIKSSASTKGPSVFPLAPSSKSTSGGTAALGCLVKDYFPEPVTVSWNSGALTSGVHTFPAVLQSSGLYSLSSVVTVPSSSLGTQTYICNVNHKPSNTKVDKKVEPKSC
light 2: not shown
notes: 2+2 format
Molecule B1 displayed a half-maximal inhibitory concentration (IC50) in assay [1] of 0.52 nM. For the same molecule, the EC50 in assay [2] was found to be 0.04 nM; in assay [3], 0.05 nM; in assay [4], 0.48 nM; in assay [5], 0.36 nM.

B2: PD1-0078 (antibody, V domains shown)
VH: QVQLQQPGAELVKPGASVKMSCKASGYTFTSTWMHWVKQRPGQGLEWIGAIDPSDSYTTYNQKFKGKATLTVDTSSTTAYMQLSSLTSEDSAVYYCTRSPFDYWGQGTTLTVSS
VL: DIVMTQSHKFMSTSVGDRVSITCKASQDVSTAVAWYQQKPGQSPKLLIYSASYRYTGVPDRFTGSGSGTDFTFAISSVQAEDLAVYYCQQHYSHPFTFGSGTKLEIK
For the molecule B2, the results for the EC50 in assay [6] and in assay [8] were 0.0263 µg/mL and 0.0224 µg/mL, respectively. Besides, the 50% inhibitory concentration (IC50) in assay [7] stood at 0.086 µg/mL.

B3: PD1/LAG3 0222 (bispecific antibody, human IgG1, kappa, L234A L235A)
heavy 1: not shown
heavy 2: QVQLQQWGAGLLKPSETLSLTCAVYGGSFSDYYWNWIRQPPGKGLEWIGEINHNGNTNSNPSLKSRVTLSLDTSKNQFSLKLRSVTAADTAVYYCAFGYSDYEYNWFDPWGQGTLVTVSSASTKGPSVFPLAPSSKSTSGGTAALGCLVEDYFPEPVTVSWNSGALTSGVHTFPAVLQSSGLYSLSSVVTVPSSSLGTQTYICNVNHKPSNTKVDEKVEPKSCDKTHTCPPCPAPEAAGGPSVFLFPPKPKDTLMISRTPEVTCVVVDVSHEDPEVKFNWYVDGVEVHNAKTKPREEQYNSTYRVVSVLTVLHQDWLNGKEYKCKVSNKALGAPIEKTISKAKGQPREPQVCTLPPSRDELTKNQVSLSCAVKGFYPSDIAVEWESNGQPENNYKTTPPVLDSDGSFFLVSKLTVDKSRWQQGNVFSCSVMHEALHNHYTQKSLSLSPGK
light 1: QVQLQQSGPELVRPGVSVKISCKGSGYTFTDYAMHWVKQSHARTLEWIGVISTYSGDTNYNQKFKDKATMTVDKSSSTAYLELARMTSEDSAIYYCARLGITTGFAYWGQGTLVTVSAASVAAPSVFIFPPSDEQLKSGTASVVCLLNNFYPREAKVQWKVDNALQSGNSQESVTEQDSKDSTYSLSSTLTLSKADYEKHKVYACEVTHQGLSSPVTKSFNRGEC
light 2: not shown
notes: 1+1 CrossMAb Vh-VL; also called PD1(0069)/aLAG3(25F7) 1+1; PD1-0069/LAG3 25F7 (1 + 1)
For the molecule B3, the IC50 in assay [1] was 0.77 nM. Moreover, the EC50 was found to be 0.16 nM in assay [2], 1.14 nM in assay [3], 0.72 nM in assay [4] and 0.28 nM in assay [5].

B4: PD1/LAG3 0224 (bispecific antibody, human IgG1, kappa, L234A L235A)
heavy 1: not shown
heavy 2: B3 heavy 2
light 1: DVQLQESGPGLVKPSQSLSLTCTVTGYSITSDYAWNWIRQFPGDKLEWLGYITYSGFTNYNPSLKSRISISRDTSKNQFFLQLNSVATEDTATYYCARWHGSAPWYFDYWGRGTTLTVSSASVAAPSVFIFPPSDEQLKSGTASVVCLLNNFYPREAKVQWKVDNALQSGNSQESVTEQDSKDSTYSLSSTLTLSKADYEKHKVYACEVTHQGLSSPVTKSFNRGEC
light 2: not shown
notes: 1+1 CrossMAb Vh-VL; also called PD1(0098)/aLAG3(25F7) 1+1; PD1-0098/LAG3 25F7 (1 + 1)
B4 showed a half-maximal inhibitory concentration (IC50) in assay [1] of 0.79 nM. Also, the EC50 came out at 0.04 nM in assay [2], 0.86 nM in assay [3], 0.86 nM in assay [4] and 0.06 nM in assay [5].
